Results taken from publication PMC11666773, “Development of mirror-image monobodies targeting the oncogenic BCR::ABL1 kinase” (Nature Communications, 2024).
Where a chain is given by its changes, count along the chain named. Numbers in names are those of the source. Non-standard residues stand in square brackets, D forms with d. *: point of attachment. 5FAM = O=C1OC2(c3ccc(O)cc3Oc3cc(O)ccc32)c2ccc(C(=O)*)cc21

What was measured:
[1] = target: T1, D-Abl SH2 domain (synthetic mirror-image SH2 domain of human BCR::ABL1) (human, UniProt P00519-2 141-240, all residues in D-configuration); experiment: ITC
T1 chain: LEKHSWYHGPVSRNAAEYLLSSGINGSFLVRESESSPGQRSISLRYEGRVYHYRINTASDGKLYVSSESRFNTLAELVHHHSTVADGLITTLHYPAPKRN

[2] = target: T2, biotinylated synthetic D-Abl SH2 domain (human, UniProt P00519-2 141-240, all residues in D-configuration; biotin (position not given)); experiment: FACS; yeast surface display
T2 chain: T1 chain

[3] = target: T1, D-Abl SH2 domain (synthetic …); experiment: ITC
[4] = target: T1, D-Abl SH2 domain (synthetic …); experiment: ITC
[5] = target: D-Abl SH2 domain (synthetic mirror-image SH2 domain of human BCR::ABL1) (human) (UniProt P00519); experiment: ITC; monobody in the syringe titrated to the SH2 domain, 20 mM HEPES pH 7.4, 150 mM NaCl, 0.5 mM TCEP-HCl, 25 °C, 1:1 binding model
[6] = target: the molecule itself; experiment: crystal structure; L-DAM21 with D-Abl SH2 A198C; 0.16 M ammonium sulfate, 0.08 M sodium acetate pH 4.6, 20% PEG 4000, 20% glycerol; 100 K
[7] = target: T3, L-Abl SH2 domain (recombinant) (human); experiment: ITC
T3 chain: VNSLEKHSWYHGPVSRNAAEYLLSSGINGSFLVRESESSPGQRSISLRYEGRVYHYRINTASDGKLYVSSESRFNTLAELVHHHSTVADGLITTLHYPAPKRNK

[8] = target: T3, L-Abl SH2 domain (recombinant); experiment: ITC; monobody in the syringe titrated to the SH2 domain, 20 mM HEPES pH 7.4, 150 mM NaCl, 0.5 mM TCEP-HCl, 25 °C, 1:1 binding model
[9] = target: T4, D-Abl SH2 domain (synthetic mirror-image SH2 domain of human BCR::ABL1) (human, UniProt P00519-2 141-240, all residues in D-configuration); experiment: fluorescence polarisation; direct binding of the fluorescent D-pY peptide to D-Abl SH2 (Fig. S1); conditions not shown; details: both partners purified
T4 construct: Mirror-image protein; also called D-Bcr-Abl SH2; D-SH2
T4 sequence: T1 chain

B1: L-monobody DAM30.2 (recombinant) (designed binder)
chain: MAASSVPTKLEVVAATPTSLLISWDAPAVTVDHYVITYGETGAYVSGPQEFTVPGSKSTATISGLKPGVDYTITVYAYEFYSGEYSHFSPISINYRT
B1 gave a Kd [1] of 189 nM.

B2: monobody DAM27 displayed on yeast (designed binder)
chain: ASSVPTKLEVVAATPTSLLISWDAPAVTVDHYVITYGETGGGGGSQEFEVPGSKSTATISGLKPGVDYTITVYAYEFYSGEYSHFSPISINYRT
B2 showed a Kd [2] of 24 nM.

B3: L-monobody DAM27 (recombinant) (designed binder)
chain: B2 chain
For B3, the Kd [3] was 72.3 nM.

B4: synthetic L-DAM27-XTEN (designed binder)
chain: ASSVPTKLEVVAATPTSLLISWDAPAVTVDHYVITYGETGGGGGSQEFEVPGSKSTATISGLKPGVDYTITVYAYEFYSGEYSHFSPISINYRTAEGPSTAEGPSTAEGPST
modifications: biotin at the N-terminus
With B4 the Kd [4] was 128 nM and the stoichiometry N [5] was 1.

B5: recombinant L-DAM27-XTEN (designed binder)
chain: B4 chain
B5 showed a Kd [4] of 97.6 nM and a stoichiometry N [5] of 1.

B6: L-monobody DAM30.1 (recombinant) (designed binder)
chain: MAASSVPTKLEVVAATPTSLLISWDAPAVTVDHYVITYGETGGGWYGQEFEVPGSKSTATISGLKPGVDYTITVYAYEFYSGEYSHFSPISINYRT
B6 was tested, and the Kd [1] was 90.3 nM.

B7: D-Abl SH2 A198C (synthetic D-Abl SH2 domain not desulfurized, cysteine at position 198) (domain or fragment, human)
chain: T1 chain with A58C
modifications: all residues in D-configuration
notes: SH2 domain of human ABL1 (BCR::ABL1); Found as a disulfide-bridged (Cys198) dimer in both crystal structures; also called D-SH2
B7: binds [6].

B8: L-monobody DAM21 (recombinant) (designed binder)
chain: ASSVPTKLEVVAATPTSLLISWDAPAVTVDHYVITYGETGGNSPVQEFTVPGSKSTATISGLKPGVDYTITVYASDYYDGEISWYSPISINYRT
Work on B8 yielded a Kd [3] of 11.9 nM.

B9: monobody DAM21 displayed on yeast (designed binder)
chain: B8 chain
B9 showed a Kd [2] of 20 nM.

B10: synthetic D-DAM27-XTEN (mirror-image monobody) (designed binder)
chain: AASSVPTKLEVVAATPTSLLISWDAPAVTVDHYVITYGETGGGGGSQEFEVPGSKSTATISGLKPGVDYTITVYAYEFYSGEYSHFSPISINYRT
modifications: all residues in D-configuration; biotin at the N-terminus
B10 was tested, and the Kd [7] was 125 nM and the stoichiometry N [8] was 1.

B11: L-monobody DAM28 (recombinant) (designed binder)
chain: MAASSVPTKLEVVAATPTSLLISWDAPAVTVDHYVITYGETGGNSPVQEFTVPGSKSTATISGLKPGVDYTITVYAYEYWEYEYSSYSPISINYRT
Work on B11 yielded a Kd [1] of 58.9 nM.

B12: monobody DAM26 displayed on yeast (designed binder)
chain: B6 chain with G44N, W45S, Y46P, G47V, E51T
B12 gave a Kd [2] of 32 nM.

B13: L-monobody DAM26 (recombinant) (designed binder)
chain: B6 chain with G44N, W45S, Y46P, G47V, E51T
B13 gave a Kd [1] of 249 nM.

B14: monobody DAM28 displayed on yeast (designed binder)
chain: B11 chain
In the case of B14, the Kd [2] is reported as 68 nM.

B15: D-pY peptide 5-carboxyfluoresceine-EPQpYEEIPIYLK-CONH2 in D-configuration (peptide)
peptide: 5FAM-[dE][dP][dQ][dpY][dE][dE][dI][dP][dI][dY][dL][dK]-NH2
notes: also called D-pYEEI peptide; D-phospho tyrosine (pY) peptide; source: synthetic peptide, bought: Peptide Synthetics (UK)
In the case of B15, the Kd [9] is reported as about 5000 nM.
